Source: article doi:10.1101/2022.04.02.486817

What was measured:
GST-TGN38 = GST-TGN38 (UniProt P19814); experiment: BLI
AP2 α-appendage = AP2 α-appendage (UniProt P17427); experiment: ITC
Cμ2 = Cμ2 (UniProt P84092); experiment: ITC
Chain of Cμ2 (P84092 158-435): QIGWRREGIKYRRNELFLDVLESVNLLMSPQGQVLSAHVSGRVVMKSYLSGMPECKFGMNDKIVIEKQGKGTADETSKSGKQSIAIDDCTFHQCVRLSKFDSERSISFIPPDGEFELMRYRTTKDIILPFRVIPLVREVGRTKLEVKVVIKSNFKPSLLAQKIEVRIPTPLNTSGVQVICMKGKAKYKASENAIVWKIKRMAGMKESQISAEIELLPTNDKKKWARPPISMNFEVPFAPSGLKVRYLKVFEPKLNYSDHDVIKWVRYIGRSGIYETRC

Chain of AP2 α-appendage (P17427 702-938): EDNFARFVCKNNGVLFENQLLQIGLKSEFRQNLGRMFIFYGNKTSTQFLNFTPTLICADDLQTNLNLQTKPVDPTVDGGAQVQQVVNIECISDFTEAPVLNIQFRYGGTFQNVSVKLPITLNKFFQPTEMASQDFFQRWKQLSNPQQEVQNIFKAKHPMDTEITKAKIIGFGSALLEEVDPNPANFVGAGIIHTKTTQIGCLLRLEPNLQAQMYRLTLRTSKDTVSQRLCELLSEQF
Chain of AP2:β2FCHO2-N3+C (P62743 whole entry, looked up, tested part not stated): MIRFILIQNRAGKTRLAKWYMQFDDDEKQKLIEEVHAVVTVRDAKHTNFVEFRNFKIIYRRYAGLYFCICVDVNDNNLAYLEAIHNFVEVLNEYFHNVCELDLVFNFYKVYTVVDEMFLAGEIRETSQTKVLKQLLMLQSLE
Chain of AP2:β2FCHO2-N3+C (P84092 whole entry, looked up, tested part not stated): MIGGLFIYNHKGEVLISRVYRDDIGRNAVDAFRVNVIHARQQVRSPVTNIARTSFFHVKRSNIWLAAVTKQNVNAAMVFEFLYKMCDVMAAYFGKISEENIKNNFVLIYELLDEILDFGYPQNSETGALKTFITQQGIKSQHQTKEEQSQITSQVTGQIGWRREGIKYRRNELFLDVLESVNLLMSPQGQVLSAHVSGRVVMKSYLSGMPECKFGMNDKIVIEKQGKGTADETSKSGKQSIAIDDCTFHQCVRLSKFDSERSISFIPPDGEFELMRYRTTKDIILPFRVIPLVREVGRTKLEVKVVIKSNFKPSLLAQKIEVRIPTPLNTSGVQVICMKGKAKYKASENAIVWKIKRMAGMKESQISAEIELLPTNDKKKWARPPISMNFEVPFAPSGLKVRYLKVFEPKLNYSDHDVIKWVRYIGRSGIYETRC
Chain of AP2:β2FCHO2-N3+C (P18484 whole entry, looked up, tested part not stated): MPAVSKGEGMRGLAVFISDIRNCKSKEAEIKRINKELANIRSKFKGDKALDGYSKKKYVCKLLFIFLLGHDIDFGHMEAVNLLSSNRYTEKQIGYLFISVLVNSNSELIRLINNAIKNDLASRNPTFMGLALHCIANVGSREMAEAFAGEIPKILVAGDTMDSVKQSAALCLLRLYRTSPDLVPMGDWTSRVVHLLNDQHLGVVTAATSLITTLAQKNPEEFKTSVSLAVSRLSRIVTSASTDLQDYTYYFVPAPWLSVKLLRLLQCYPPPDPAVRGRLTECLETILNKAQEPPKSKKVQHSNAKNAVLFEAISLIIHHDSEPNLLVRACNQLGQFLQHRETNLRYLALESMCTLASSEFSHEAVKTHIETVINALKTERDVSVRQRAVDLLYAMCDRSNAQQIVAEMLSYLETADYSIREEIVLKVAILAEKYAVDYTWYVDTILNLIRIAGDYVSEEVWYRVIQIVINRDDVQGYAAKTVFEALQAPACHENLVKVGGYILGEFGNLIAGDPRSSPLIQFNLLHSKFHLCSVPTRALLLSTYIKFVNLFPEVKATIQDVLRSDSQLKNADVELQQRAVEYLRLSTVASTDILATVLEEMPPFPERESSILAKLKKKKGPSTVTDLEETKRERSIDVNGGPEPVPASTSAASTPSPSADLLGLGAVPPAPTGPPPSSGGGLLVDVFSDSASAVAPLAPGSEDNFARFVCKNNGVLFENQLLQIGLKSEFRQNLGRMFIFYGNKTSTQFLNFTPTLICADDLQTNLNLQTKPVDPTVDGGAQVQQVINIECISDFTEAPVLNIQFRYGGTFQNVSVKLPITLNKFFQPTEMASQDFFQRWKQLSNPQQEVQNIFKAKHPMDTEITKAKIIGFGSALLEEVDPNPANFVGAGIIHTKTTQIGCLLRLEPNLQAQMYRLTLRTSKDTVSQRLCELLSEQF
Chain of GST-TGN38 (P19814 325-357): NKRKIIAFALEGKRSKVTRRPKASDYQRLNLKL

## AP2:β2FCHO2-N3+C (from UniProt P18484 1-938; P84092 1-435; P62743 1-142) (complex)
GST-TGN38
  fold tighter binding than AP2 core: 3 fold

## FCHO1 C block FGtoAA (from UniProt O14526 427-448) (peptide)
AP2 α-appendage
  Kd: > 500 µM

## FCHO1 C block LEStoAAA (from UniProt O14526 427-448) (peptide)
AP2 α-appendage
  Kd: > 500 µM

## FCHO1 C block PPtoGG (from UniProt O14526 427-448) (peptide)
AP2 α-appendage
  Kd: > 500 µM

## FCHO2 N1+N2 E320A+E321A+K326A (domain or fragment)
Cμ2
  fold reduction of binding against the wild type: 5 fold
